Values belong to the binder of their own block, whether it stands above or below them.
Molecular target: T1, human IL-2 receptor (IL-2Rα/IL-2Rβ/γc) (human, UniProt P01589 22-272; P14784 27-551; P31785 23-369)
T1 sequence 1: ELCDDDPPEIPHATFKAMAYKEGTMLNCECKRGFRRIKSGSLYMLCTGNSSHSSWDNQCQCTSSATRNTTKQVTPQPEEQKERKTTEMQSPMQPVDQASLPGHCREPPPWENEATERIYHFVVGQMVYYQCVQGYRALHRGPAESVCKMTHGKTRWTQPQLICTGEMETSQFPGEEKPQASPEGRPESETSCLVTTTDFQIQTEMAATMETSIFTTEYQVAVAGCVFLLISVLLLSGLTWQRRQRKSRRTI
T1 sequence 2: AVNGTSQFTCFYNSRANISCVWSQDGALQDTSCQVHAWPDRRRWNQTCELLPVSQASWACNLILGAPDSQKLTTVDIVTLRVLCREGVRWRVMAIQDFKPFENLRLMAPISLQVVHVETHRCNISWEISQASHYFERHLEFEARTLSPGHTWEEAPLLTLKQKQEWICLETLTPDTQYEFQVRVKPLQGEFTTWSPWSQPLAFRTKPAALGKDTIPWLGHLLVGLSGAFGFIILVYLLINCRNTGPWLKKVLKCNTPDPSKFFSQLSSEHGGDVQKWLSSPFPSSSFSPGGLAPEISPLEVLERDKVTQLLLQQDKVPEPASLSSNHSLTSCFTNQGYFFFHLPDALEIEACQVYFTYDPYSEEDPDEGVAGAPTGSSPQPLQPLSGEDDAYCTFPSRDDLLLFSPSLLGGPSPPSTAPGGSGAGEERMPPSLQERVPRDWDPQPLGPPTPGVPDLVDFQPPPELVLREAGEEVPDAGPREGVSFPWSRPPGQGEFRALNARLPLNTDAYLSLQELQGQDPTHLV
T1 sequence 3: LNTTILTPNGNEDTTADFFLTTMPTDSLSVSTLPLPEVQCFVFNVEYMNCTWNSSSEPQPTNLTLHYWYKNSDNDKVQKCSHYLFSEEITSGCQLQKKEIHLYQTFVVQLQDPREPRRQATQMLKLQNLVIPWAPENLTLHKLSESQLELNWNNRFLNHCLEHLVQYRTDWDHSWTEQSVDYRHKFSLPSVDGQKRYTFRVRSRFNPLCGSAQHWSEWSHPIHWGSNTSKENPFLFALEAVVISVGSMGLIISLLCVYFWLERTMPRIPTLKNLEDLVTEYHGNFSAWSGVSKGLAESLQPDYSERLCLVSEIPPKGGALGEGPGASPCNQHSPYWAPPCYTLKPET
Assay: cell-based or functional assay

B1: DC00062 (other)
chain 1: EVQLVESGGGLVQTGGSLRLSCAASGGTFSRDAMAWFRQVPGKEREFVALISWSGATTNYADSVKGRFAISRDNGKNTVYLQMNRLKPADTAIYYCAADRRPMGSRSYFEPTEYDDWGQGTQVTVSSGGGGSGGGGSGGGGSQVQLVESGGGLVQPGGSLRLSCATSGFTFRNNFMSWVRQAPGKGLEWVSTISYGGESTTYAESVKGRFTISRDNAKNTLYLQMNNLKPEDTAVYYCAKATSYDSIRSGSRGQGTQVTVSSDKTHTCPPCPAPEAAGGPSVFLFPPKPKDTLMISRTPEVTCVVVDVSHEDPEVKFNWYVDGVEVHNAKTKPREEQYNSTYRVVSVLTVLHQDWLNGKEYKCKVSNKALGAPIEKTISKAKGQPREPQVYTLPPSRDELTKNQVSLTCLVKGFYPSDIAVEWESNGQPENNYKTTPPVLDSDGSFLLYSKLTVDKSRWQQGNVFSCSVMHEALHNHYTQKSLSLSPGK
chain 2: EVQLVESGGGLVQTGGSLRLSCAASGGTFSRDAMAWFRQVPGKEREFVALISWSGATTNYADSVKGRFAISRDNGKNTVYLQMNRLKPADTAIYYCAADRRPMGSRSYFEPTEYDDWGQGTQVTVSSGGGGSGGGGSGGGGSQVQLVESGGGLVQPGGSLRLSCATSGFTFRNNFMSWVRQAPGKGLEWVSTISYGGESTTYAESVKGRFTISRDNAKNTLYLQMNNLKPEDTAVYYCAKATSYDSIRSGSRGQGTQVTVSSGGGGSGGGGSGGGGSQVQLVESGGGLVQAGGSLTLSCAAPGRTFGTDVVGWFRQAPGKEREFVASISRSGDGIYYDDSVKGRFTISRNNAWNTVNLQMNSLKVEDTAVYYCAAGDGWSTYDYWGQGTQVTVSSGGGGSGGGGSGGGGSDKTHTCPPCPAPEAAGGPSVFLFPPKPKDTLMISRTPEVTCVVVDVSHEDPEVKFNWYVDGVEVHNAKTKPREEQYNSTYRVVSVLTVLHQDWLNGKEYKCKVSNKALGAPIEKTISKAKGQPREPQVYTLPPSRDELTKNQVSLTCLVKGFYPSDIAVEWESNGQPENNYKTTPPVLDSDGSFFLYSRLTVDKSRWQQGNVFSCSVMHEALHNHYTQKSLSLSPGK
EC50 (nM) pSTAT5, NK, human PBMCs: 0.0307 nM
EC50 (nM) pSTAT5, Treg, human PBMCs: < 0.1 pM
Fold Max signal (% pSTAT5+) Treg/NK: 4 fold
Max signal (% pSTAT5+), NK: 22 % pSTAT5+
Max signal (% pSTAT5+), Treg: 93 % pSTAT5+
fold EC50 NK/Treg: > 307 fold

B4: DC00066 (other)
chain 1: B1 chain 1
chain 2: QVQLVESGGGLVQPGGSLRLSCATSGFTFRNNFMSWVRQAPGKGLEWVSTISYGGESTTYAESVKGRFTISRDNAKNTLYLQMNNLKPEDTAVYYCAKATSYDSIRSGSRGQGTQVTVSSGGGGSGGGGSGGGGSEVQLVESGGGLVQTGGSLRLSCAASGGTFSRDAMAWFRQVPGKEREFVALISWSGATTNYADSVKGRFAISRDNGKNTVYLQMNRLKPADTAIYYCAADRRPMGSRSYFEPTEYDDWGQGTQVTVSSGGGGSGGGGSGGGGSQVQLVESGGGLVQAGGSLTLSCAAPGRTFGTDVVGWFRQAPGKEREFVASISRSGDGIYYDDSVKGRFTISRNNAWNTVNLQMNSLKVEDTAVYYCAAGDGWSTYDYWGQGTQVTVSSGGGGSGGGGSGGGGSDKTHTCPPCPAPEAAGGPSVFLFPPKPKDTLMISRTPEVTCVVVDVSHEDPEVKFNWYVDGVEVHNAKTKPREEQYNSTYRVVSVLTVLHQDWLNGKEYKCKVSNKALGAPIEKTISKAKGQPREPQVYTLPPSRDELTKNQVSLTCLVKGFYPSDIAVEWESNGQPENNYKTTPPVLDSDGSFFLYSRLTVDKSRWQQGNVFSCSVMHEALHNHYTQKSLSLSPGK
EC50 (nM) pSTAT5, NK, human PBMCs: 0.178 nM
EC50 (nM) pSTAT5, Treg, human PBMCs: < 0.1 pM
Fold Max signal (% pSTAT5+) Treg/NK: 4 fold
Max signal (% pSTAT5+), NK: 27 % pSTAT5+
Max signal (% pSTAT5+), Treg: 96 % pSTAT5+
fold EC50 NK/Treg: > 1780 fold

B5: DC00064 (other)
chain 1: B1 chain 1
chain 2: QVQLVESGGGLVQPGGSLRLSCATSGFTFRNNFMSWVRQAPGKGLEWVSTISYGGESTTYAESVKGRFTISRDNAKNTLYLQMNNLKPEDTAVYYCAKATSYDSIRSGSRGQGTQVTVSSGGGGSGGGGSGGGGSQVQLVESGGGLVQAGGSLTLSCAAPGRTFGTDVVGWFRQAPGKEREFVASISRSGDGIYYDDSVKGRFTISRNNAWNTVNLQMNSLKVEDTAVYYCAAGDGWSTYDYWGQGTQVTVSSGGGGSGGGGSGGGGSEVQLVESGGGLVQTGGSLRLSCAASGGTFSRDAMAWFRQVPGKEREFVALISWSGATTNYADSVKGRFAISRDNGKNTVYLQMNRLKPADTAIYYCAADRRPMGSRSYFEPTEYDDWGQGTQVTVSSGGGGSGGGGSGGGGSDKTHTCPPCPAPEAAGGPSVFLFPPKPKDTLMISRTPEVTCVVVDVSHEDPEVKFNWYVDGVEVHNAKTKPREEQYNSTYRVVSVLTVLHQDWLNGKEYKCKVSNKALGAPIEKTISKAKGQPREPQVYTLPPSRDELTKNQVSLTCLVKGFYPSDIAVEWESNGQPENNYKTTPPVLDSDGSFFLYSRLTVDKSRWQQGNVFSCSVMHEALHNHYTQKSLSLSPGK
EC50 (nM) pSTAT5, NK, human PBMCs: 0.186 nM
EC50 (nM) pSTAT5, Treg, human PBMCs: < 0.1 pM
Fold Max signal (% pSTAT5+) Treg/NK: 2 fold
Max signal (% pSTAT5+), NK: 38 % pSTAT5+
Max signal (% pSTAT5+), Treg: 94 % pSTAT5+
fold EC50 NK/Treg: > 1860 fold

Other lines, results leading:

EC50 (nM) pSTAT5, NK, human PBMCs: 0.217 nM
EC50 (nM) pSTAT5, Treg, human PBMCs: < 0.1 pM
Fold Max signal (% pSTAT5+) Treg/NK: 2 fold
Max signal (% pSTAT5+), NK: 39 % pSTAT5+
Max signal (% pSTAT5+), Treg: 95 % pSTAT5+
fold EC50 NK/Treg: > 2180 fold
B2: DC00067 (other)
chain 1: B1 chain 1
chain 2: QVQLVESGGGLVQAGGSLTLSCAAPGRTFGTDVVGWFRQAPGKEREFVASISRSGDGIYYDDSVKGRFTISRNNAWNTVNLQMNSLKVEDTAVYYCAAGDGWSTYDYWGQGTQVTVSSGGGGSGGGGSGGGGSEVQLVESGGGLVQTGGSLRLSCAASGGTFSRDAMAWFRQVPGKEREFVALISWSGATTNYADSVKGRFAISRDNGKNTVYLQMNRLKPADTAIYYCAADRRPMGSRSYFEPTEYDDWGQGTQVTVSSGGGGSGGGGSGGGGSQVQLVESGGGLVQPGGSLRLSCATSGFTFRNNFMSWVRQAPGKGLEWVSTISYGGESTTYAESVKGRFTISRDNAKNTLYLQMNNLKPEDTAVYYCAKATSYDSIRSGSRGQGTQVTVSSDKTHTCPPCPAPEAAGGPSVFLFPPKPKDTLMISRTPEVTCVVVDVSHEDPEVKFNWYVDGVEVHNAKTKPREEQYNSTYRVVSVLTVLHQDWLNGKEYKCKVSNKALGAPIEKTISKAKGQPREPQVYTLPPSRDELTKNQVSLTCLVKGFYPSDIAVEWESNGQPENNYKTTPPVLDSDGSFFLYSRLTVDKSRWQQGNVFSCSVMHEALHNHYTQKSLSLSPGK

EC50 (nM) pSTAT5, NK, human PBMCs: 0.234 nM
EC50 (nM) pSTAT5, Treg, human PBMCs: 0.00119 nM
Fold Max signal (% pSTAT5+) Treg/NK: 7 fold
Max signal (% pSTAT5+), NK: 12 % pSTAT5+
Max signal (% pSTAT5+), Treg: 87 % pSTAT5+
fold EC50 NK/Treg: 197 fold
B3: DC00069 (other)
chain 1: B1 chain 1
chain 2: QVQLVESGGGLVQPGGSLRLSCATSGFTFRNNFMSWVRQAPGKGLEWVSTISYGGESTTYAESVKGRFTISRDNAKNTLYLQMNNLKPEDTAVYYCAKATSYDSIRSGSRGQGTQVTVSSGGGGSGGGGSGGGGSQVQLVESGGGLVQAGGSLTLSCAAPGRTFGTDVVGWFRQAPGKEREFVASISRSGDGIYYDDSVKGRFTISRNNAWNTVNLQMNSLKVEDTAVYYCAAGDGWSTYDYWGQGTQVTVSSGGGGSGGGGSGGGGSDKTHTCPPCPAPEAAGGPSVFLFPPKPKDTLMISRTPEVTCVVVDVSHEDPEVKFNWYVDGVEVHNAKTKPREEQYNSTYRVVSVLTVLHQDWLNGKEYKCKVSNKALGAPIEKTISKAKGQPREPQVYTLPPSRDELTKNQVSLTCLVKGFYPSDIAVEWESNGQPENNYKTTPPVLDSDGSFFLYSRLTVDKSRWQQGNVFSCSVMHEALHNHYTQKSLSLSPGK
